Data published in the Immune Epitope Database (IEDB).

How the values were obtained:
Assay in all cases: IEDB peptide-MHC binding, purified MHC/competitive/radioactivity; filed as Kd, often an IC50 or EC50 that approximates it; ≥ and ≤ were set here for values at or beyond the usual limits of such assays
[1] = target: HLA-A*02:02
[2] = target: HLA-A*02:03
[3] = target: HLA-A*02:06
[4] = target: HLA-A*03:01
[5] = target: HLA-A*33:01
[6] = target: HLA-A*11:01
[7] = target: HLA-A*68:01
[8] = target: HLA-A*31:01
[9] = source organism: Vaccinia virus WR
[10] = source organism: SARS coronavirus Tor2
[11] = source organism: Mammarenavirus brazilense
[12] = source organism: Lymphocytic choriomeningitis virus (strain Armstrong)

| Sequence | Kd [1, 9] [nM] | Kd [2, 9] [nM] | Kd [3, 9] [nM] | also measured |
| --- | --- | --- | --- | --- |
| NVDIIDLLL | 461 | 4090 | 22.3 |  |
| FLLPSLATV |  |  |  | Kd [1, 10]: 0.134 nM; Kd [2, 10]: 0.204 nM; Kd [3, 10]: 0.411 nM |
| RLRQDTEDIV | 134 | 284 | 7490 |  |
| ALVFLILCFT |  |  |  | Kd [1, 10]: 209 nM; Kd [2, 10]: 1120 nM; Kd [3, 10]: 229 nM |
| FTDCRTIDA | 10900 | 2680 | 2710 |  |
| PMIIGEPIIV | ≥ 70000 | 8840 | ≥ 69800 |  |
| FITVLTSVDI | 1420 | 237 | 1270 |  |
| KQYDSTDFKM | 8.38 | 3270 | 107 |  |
| IIFWFSLEI |  |  |  | Kd [1, 10]: 1.75 nM; Kd [2, 10]: 87 nM; Kd [3, 10]: 4.64 nM |
| MSPALFFTFL |  |  |  | Kd [1, 11]: 546 nM; Kd [2, 11]: 7630 nM; Kd [3, 11]: 834 nM |
| ILEYLYIMRV | 73.5 | 83.2 | 134 |  |
| IVDSMIIGHI | 507 | 208 | 561 |  |
| VLLPFYETL | 4060 | 267 | 218 |  |
| YLSGTDDEVI | 6.26 | 211 | 947 |  |
| VVIGLLFMI |  |  |  | Kd ([3]; source organism: Dengue virus 1 Brazil/97-11/1997): 5.61 nM |
| GLTTHCTKL | 100 | 30 | ≥ 31600 |  |
| FISSFLLPLT | 38.6 | 44.2 | 50.6 |  |
| STKADAVVA | 8190 | 4950 | 16200 |  |
| AIFNNRNLA | 272 | 98.1 | 7.07 |  |
| PVETLFGSYI | 13700 | 11800 | ≥ 69800 |  |
| LLPDALLFTL |  |  |  | Kd [1, 11]: 4.72 nM; Kd [2, 11]: 732 nM; Kd [3, 11]: 78.9 nM |
| FQESFYEDIA | 2560 | 555 | 303 |  |
| FIISTLNKIL | 5080 | 1.8 | 8.1 |  |
| AIFNNRNLAA | 450 | 103 | 774 |  |

| Sequence | Kd [1, 9] [nM] | Kd [2, 9] [nM] | Kd [3, 9] [nM] | also measured |
| --- | --- | --- | --- | --- |
| VTFINDYANL | 99.1 | 247 | 148 |  |
| QLLKILDNL | 227 | 319 | 135 |  |
| RTWKVLSIM | 19100 | 2630 | ≥ 34000 |  |
| KLIEYSDFA |  |  |  | Kd [1, 10]: 0.0948 nM; Kd [2, 10]: 0.534 nM; Kd [3, 10]: 0.705 nM |
| FVFNGTSWFI |  |  |  | Kd [1, 10]: 1.01 nM; Kd [2, 10]: 2.15 nM; Kd [3, 10]: 0.439 nM |
| HTNHSDISM | 8810 | 4140 | 1200 |  |
| IVVALSSLV | 26.7 | 3.85 | 8.23 |  |
| FVDEFYAYL |  |  |  | Kd [1, 10]: 0.0886 nM; Kd [2, 10]: 2.62 nM; Kd [3, 10]: 0.36 nM |
| SLPSYAAYA |  |  |  | Kd [1, 10]: 6.68 nM; Kd [2, 10]: 2.56 nM; Kd [3, 10]: 8.72 nM |
| DVIKSISSI | ≥ 63800 | 7520 | 15000 |  |
| NITRLEVIGL | 907 | 95.1 | 197 |  |
| VQLSNNKYVL | 288 | 9490 | 170 |  |
| SALMTLDDLA | 210 | 2320 | 193 |  |
| TTNNLLEQL | 122 | 1420 | 3040 |  |
| LFHGGEPIK |  |  |  | Kd [4, 9]: 719 nM; Kd [5, 9]: ≥ 77700 nM; Kd [6, 9]: 766 nM; Kd [7, 9]: 5110 nM; Kd [8, 9]: ≥ 77900 nM |
| RFVEELLHR |  |  |  | Kd [4, 9]: 2180 nM; Kd [5, 9]: 686 nM; Kd [6, 9]: 3450 nM; Kd [7, 9]: 227 nM; Kd [8, 9]: 19.7 nM |
| FVNEKYCIIK |  |  |  | Kd [4, 9]: ≥ 48600 nM; Kd [5, 9]: 3920 nM; Kd [6, 9]: 226 nM; Kd [7, 9]: 275 nM; Kd [8, 9]: 6150 nM |
| NMCNSDVSV | 80 | 30.3 | 97 |  |
| RLEVIGLTT | ≥ 20000 | 13900 | ≥ 49800 |  |
| LFYTFAISY |  |  |  | Kd [4, 9]: ≥ 48400 nM; Kd [5, 9]: ≥ 77700 nM; Kd [6, 9]: ≥ 20100 nM; Kd [7, 9]: ≥ 43300 nM; Kd [8, 9]: ≥ 77900 nM |
| RVPRNLTLSK |  |  |  | Kd [4, 10]: 12.4 nM; Kd [5, 10]: ≥ 70000 nM; Kd [6, 10]: 8.33 nM; Kd [7, 10]: 2100 nM; Kd [8, 10]: 767 nM |
| GMDYEEYKSK |  |  |  | Kd [4, 9]: 29.7 nM; Kd [5, 9]: ≥ 36000 nM; Kd [6, 9]: 249 nM; Kd [7, 9]: ≥ 21100 nM; Kd [8, 9]: 1690 nM |
| NACSANNSHH |  |  |  | Kd [4, 12]: ≥ 70000 nM; Kd [5, 12]: ≥ 70000 nM; Kd [6, 12]: ≥ 69700 nM; Kd [7, 12]: 4710 nM; Kd [8, 12]: ≥ 70000 nM |
| YLLVKWIRK |  |  |  | Kd [4, 9]: 7.5 nM; Kd [5, 9]: 5200 nM; Kd [6, 9]: 84 nM; Kd [7, 9]: ≥ 35200 nM; Kd [8, 9]: 285 nM |
